Results published in the nanobody polyreactivity screen of Harvey et al. (2022).

Test: yeast display, Sf9 membrane polyspecificity reagent, FACS + sequencing; frameworks hold sequencing errors
How it was run: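 Galactose induction of a Saccharomyces cerevisiae BJ5465 synthetic nanobody display library ran 36–48 hours. The cells were then stained for 1 hour at 4 °C with 10% biotinylated, detergent-solubilized Sf9 membrane reagent, pulled down on streptavidin microbeads and FACS-sorted into low and high (top ~1%) gates on expression and reagent-binding fluorescence. Labels for polyreactivity follow the gate of origin.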

Sequence	polyreactivity (PSR sort gate)
QVQLVESGGGLVQAGGSLRLSCAASGRIFDRYAMGWYRPAPGKERELVAASTGSGGRTYYADSVKGRFTISRDNAKNTVYLQMNSLKPEDTAVYYCARAFGQRRYYYWGQGTQVTVSS	high polyreactivity
QVQLVESGGGLVQAGGSLRLSCAASGRVFSTNAMGWYRQAPGKERELVAGINSGGSTNYADSVKGRFTISRDNAKNTVSLQMNSLKPEDTAVYYCNATLRVESWYVHYGVDYDYWGQGTQVTVSS	low polyreactivity
QVQLVESGGGLVQAGGSLRLSCAASGFTFGGNVMGWYRQAPGKERELVAAISSSGGSTYYADSVKGRFTISRDNAKNTVYLQMNSLKPEDTAVYYCAATTYGWWGYQYDYWGQGTQVTVSS	high polyreactivity
QVQLEESGGGLVQAGGSLRLSCAASGFIFGYYGMGWYRQAPGKERELVAAITDGGSTTYADSVKGRFTISRDNAKNTVYLQMNSLKPEDTAVYYCNAEAGGFDYYGKTYRYGDYWGQGTQVTVSS	low polyreactivity
QVQLVESGGGLVQAGGSLRLSCAASGSPFSRNAMGWYRPAPGKEREMVAAISYSGGSTYYADSVKGRFTISRDNAKNTVYLQLNSLKPEDTAVYYCNTYIVNYSGQEMVYWGQGTQVTVSS	high polyreactivity
QVQLVESGGGLVQAGGSLRLSCAASGSIFQGNAMGWYTQAPGKERELVAAITYSGGSTYYADSVKGRFTISRDNAKNTVYLQMNSLKAEDTAVYYCNTTLRDSRQYVDRAQYNRYDYWGQGTQVTVSS	low polyreactivity
QVQLVESGVGLVQAGGSLRLSCAASGNTFGKYAMGWYRQAPGTERELVATITRRGGSTYYADSVKGRFTISRDKAKNSVYLQMNSLKPEDTAVYYCNRAVTYVTYVYWGQGTQVTVSS	high polyreactivity
QVQLVESGGGLVQAGGILRLSCAASGSIFQYNAKGWYIQEPGKEREFVAAISGSGTTTYYADSVKGRFTISRDNAKNTVYLQMNSLKPEDTAVYYCAKAIRHYPDVAYNAWGQGSQVTVSS	high polyreactivity
QVQLVESGGGLVQAGGSLRLSCAASGRIFIDYAMGWYRQAPGKERELVATISESGGSTYYADSVKARFTISRDNAKNTVYLQMNSLKPEDTAVYYCAAVGDNLATAEYDFWGQGTKVTVSS	low polyreactivity
QVQLVESGGGLVQAGGSLRLSCAASGSTLEYYAMGWYRQAPGKERELVAAITYSGGDTYYADSVKGRFTISRDNAKNTVYLQMNSLKPEDTAVYYCAAEALYYPYETYDYWGQGTQVTVSS	high polyreactivity
QVQLVESGGGLVQAGGSLRISSAASGIIFPWYYMGWYRQAPGKESELVAGITDGGDTTYADSVKWRFTISRDYAMNNVYLEMNRLKPEDTAVYYCAADIGYGYWHFDYLGQGTQVTVSS	low polyreactivity
QVQLVESGGGLVQPGGSLRLSCAASGGTFQPNAMVWYRQAPGKERELVAAISWSDGSTYYADSVKGRFTISLDNAKNTVYLQMNSLKPVDTAVYYCAADFTYYDSPYRDYNYESWGQGTQVTVSS	low polyreactivity
QVQLEESGGGLVQAGGSLRLICAASGGIFQKYAMGWYRQAPGKERELVASNNTGVRTYYADSVKGRFTISRDNAKNTVYLQMNSLKPEDTAVYYCNADGGGPRKYTRTRGHWGQGTQVTVSS	low polyreactivity
QVQLVESGGGLVQAGGSLRLSCAASGRILASYAMGWYRQAPGKERELVAAIRYRGSTSYADSVKGRFTISRDNAKNTVYLQMNSLKPEDTAVYYCAAKWHVRGRGARYRYDYDYWGQGTQVTVSS	low polyreactivity
QDQLVESGGGLVQAGGSLRLSCAASGLIVGDYAMGWYRQAPGKERELVAAITGSVTRTYYADSVKGRFTISRDNAKNTVYLQMNSLKPEDTAVYYCATRVHYIGFYDYDYWGQGTQVTVSS	low polyreactivity
QVQLVESGAGLVQAGGSLRLSCAASGFTFNYYAMGWYRQAPGKERELVATITTSGGITYYADSVKGRFTISRDNAKNTVYLQMNSLKPEDTAVYYCAAGSYSRYLYSLYFDFDYWGQGTQVTVSS	low polyreactivity
QVQLQESGVGLVQAGGSLRLSCAASGSISAVGAMGCYRQAPGQEREFAASVNWGTNTNYADSVKGRFTISRDNAKNTLYLQMNSLKPEDTAVYYCAVLPDWETRHDYWGHGTQVTVSS	low polyreactivity
QVQLVESGGGLVQAGGSLRLSCAASGSTSRTYAMGWYRQAPGQEMELVAAISSSGGRTYYADSVKGRFTISRDTAKNTVYLEMNSLKPEDTAVYYCNARTYSYRGYNYWGQGTQVTVSS	high polyreactivity
QVQLVESAGGLVQAGGILRLSCAASGSTFDSYGMGWYRQAPGKERELVASISVSGGGTYYADSVKGRFTISRDNAKNTVYLQMNSLKPEDTAVYYCNARYGNESQGWEDYWGQGTQVTVSS	low polyreactivity
QVQLVESGGGLVQAGGSLRLSCAASGGIFALNDMGWYRQAPGKERELVAAINGAGTYYADSVKGRFTISRDNAKNTVYLQMNSLKPEETAVYYCARRWLHWEYARTWTRVEYDYWGQGTQVTVSS	low polyreactivity
QVQLVESGGGLVQAGGSLRLSCAASGRTFRRNAMGWYRQAPGKERELVAAISGGGSTNYADSVKGRFTISRDNAKNTVYLQMNSLKPEDTAVYYCNKRGTIWSGYWGQGTQVTVSS	high polyreactivity
QVQLVESGGGLVQAGGSLRLSCAASGSIYSNAMGWYRQAPGKERELVAAISRTGGSTYYADSVKGLFTISRDNAKITVYLQMNSLKPEDTAVYYCAVSAWTRSHALYYWGQGTQVTVSS	high polyreactivity

Sequence	polyreactivity (PSR sort gate)
QVQLVESGGGLVQAGGSLRLSCAASGFTFQFYDMGWYRQAPGTEREFVATITSSGGSTYYADSVKGRFTISRDNAKNTVYLQMNSLKPEDPAVYYCANDKLFFYRVGSDYWGQGTQVTVSS	low polyreactivity
QVQHVESGGALVQAGGSLRLSCAASGLIYALSAMGWDRQAPGKEMELVAAIDWSGGSTYYADSVKGRFTISRDNAKNTVYVQMNCLKPEDTAVYYCAADISSSPGNDYWGQGTQLTVSS	high polyreactivity
QVQLVESGGGLVQAGGSLRLSCAASGIIFDDNAMGWYRQAPGKERELVAAINRDGSTYYADSVKGRFTISRDNAKNTVYLQLNSLKPEDTAVYYWAADFYGPRSAVYFLRYSTRYYWGQGTQVTVSS	low polyreactivity
QVQLVESGGGLVQAGGSLRLSCAASGSIFLPYAMGWYRQAPGKEREFVAAIRWSTGRTFYADSVKGRVTISRDNAKNTVYLQMNSLKPEDTAVYYCAAKYYDSWYTYRYDYWGQGTQVTVSS	high polyreactivity
QVQLVESGGGLVQAGGSHRLSCAASGRTFRYNAMGWYRQATGKERELVAAISTRGGSTYYADSVKGRFTISRDNAKNTVYLQMNSLKPEDTAVYYCATKVYSSRYRGYGYWGQGTQVTVSS	high polyreactivity
QVQLVESGGGLVQAGGSLRLSCAASGRTFRWYTMGWYRQAPGKERELVAAITSRGGSTYADSVKGRFTISRDNAKNTVYLQMNSMKPEDTAVYYCNAARTYQYDYWGQGTQVTVSS	high polyreactivity
QVQLVESGGGLVQAGGSLRLSCAASGFTFIHYGMGWYRQAPGKERELVAAISSRGGRTYYADSVKGRFTISRDNAKNTVYLQMNSLKPEDTAVYYCNRDYAVISYGEYDSWGQGTQVTVSS	high polyreactivity
QVQLVESGGGLVQAGGSLRLICAASGSSFSYNPMVWYRQAPGKERELVAAIRTSGGRTYYADSVKGRFTISRDNAKNTVYLQMNSLKPEDTAVYYCAKRWVYSYGYEYWGQGTQVTVSS	high polyreactivity
QLQLVESGGGLVQAGGSLRLSCAASGFIFSTYAMGWYRQAPGKERELVAAISRSGGSTYYADSVKGRFTISRDNAKNTVYLQMNSLKPEDTAVYYCNLSQAAFRTGYDYWGQGTQVTVSS	high polyreactivity
QVQLVETGGGLVQAGGSLRLSCAASGIIIQNNAMGWYRQAPGTERELVAAISSSGGRTYYADSVKGRFTISRDNAKNTVYLQMNSLKPEDTEVYYCNKRWRGSYDYWGQGTQVTVSS	high polyreactivity
QVQLVESGGGLVQAGGSLRLSCAASGSTFDRYAMGWYRQAPGNERELVAAISSSGGTTYYADSVKGRFTITRDNAKTTVYVQMNSLKPEDTAVYYCAAVRYYESRGGYDYWGQGPQVTVSS	low polyreactivity
QVQLVESGGGLVQAGGSLRLSCAASGSIFRWYAMGWYRQAPGKERELVAAITWSASRTYYADSVKGRFTISRDNAKNTVYLQMNSLKPEDTAVYYCAADHDGPYAGYDSWGQGTQVTVSS	low polyreactivity
QVQLVDSGGGLVQAGGSLRLSCAASGITFYFNAMGWYRQAPGKERELVAAITRGGRTNYADSVKGRFTISRDNAKNTVYLQMNSLKPEDTAFYYCAAYIYRGRETNGPDYYYWGQGTQVTVSS	low polyreactivity
QVQLVESGGGLVQAGGSLRLSCAASGLTFYRNAMGWYRQAPGKERELVAAITKSGARTYYAVSVKGRFTISRDNAKNTVYLQMNSLKPEDTAVYYCAADALNTYYYWGQGTQVTVSS	high polyreactivity
QVQLVESGGGLVQAGGSLRLSCAASGLISRRNAMGWYRQAPGKERELVAAISTGSSTNYADSVKGRFTLSRDNAKNTVYLQMNSLKPEDSAVYYCAATQYWWSTLGIRDDYWGQGTQVTVSS	low polyreactivity
QVQLVESGGGLVQAGGSLRLSCAASGRTFGGNAMGWYRQAPGKERELVAAISLSGGTTYYADSVKGRFTISRDNAKNTVYLQMNSLKPEDTAVYYCAADTAGYYDEDKDGDYWGQGTQVTVSS	low polyreactivity
QVQLVESGGGLVQAGGSLRLSCAASGIIFRYYAMGWYRQAPGKERELVAAISSSGVSTYYADSVKGRFTISRDNAKNTVYLQMNSLKPEDTAVYYCNAVIWVRQYFSRSSSNYWGQGTQVTVSS	high polyreactivity
QVQLVESGGGLVQAGGSLRLSCAASGRIFSYYAMGWYRQAPGKERELVAAISTSGGNTYYADSVKGRFTISRDNAKNTVYLQMNSLLTEDTAVYYCAAAYFSSGYKYYYWGQGTQVSVSS	high polyreactivity
QVQLVESGGGLVQAGGSLRLSCAASGSTFTANAMGWYRQAPWKERELVASISAREGSTYADSVKGRFTISRDNANNTVYLQMNSLKPEDTAVYYCNAAYFHIFPYDYDYWGQCTQVTVSS	low polyreactivity
QVQLVESGGGLVQAGGSLRLICAASGFTINYYVMGWYRQAPGKERELVAAISGRGGSTYYADSVTGRFTISRDNAKNTVYLQMNSLNPEETAVYYCNKVFSIPWQGVRFDFWGQGTQVTVSS	high polyreactivity
QVQLVESGGGLVQAGGRLRLSCAASGSIISYYAMGWYRQAPGKERELVATITSSGSTYADSVKGRFTISRDNAKNTVYLQMNSLKPEDTAVYYCNADSGYSEYWGVDVAYDYWGQGTQVTVSS	low polyreactivity
